Laboratory results: patent US20180305451A1

Tests used:
[1] = target: putative molecular counterpart of HIDE1 on T cells; assay: flow cytometry on H9 human T cell line, live singlets; negative control PE tetramer at 3 µg/well (60 µg/ml)
[2] = target: putative molecular counterpart of HIDE1 on T cells; assay: FACS, tetramer on CD4+ T cells activated for 72 h
[3] = target: putative molecular counterpart of HIDE1 on T cells; assay: flow cytometry on H9 human T cell line, live singlets; PE tetramer at 3 µg/well (60 µg/ml)
[4] = target: putative molecular counterpart of HIDE1 on T cells; assay: flow cytometry on U937 human myeloid cell line, live singlets; PE tetramer at 3 µg/well (60 µg/ml); the text calls this no binding; Tetramer-EGFR in the same box reads 79.6

| Geometric Mean (B2-A) [1] | fold increase in the Geo Mean compared to EGFR negative control [2] [fold] | Geometric Mean (B2-A) [3] | Geometric Mean (B2-A) [4] | Substance |
| --- | --- | --- | --- | --- |
| 82.1 |  |  |  | Tetramer-EGFR (from UniProt P00533) |
|  | 3 | 731 | 86.2 | HIDE1 tetramer (from UniProt A8MVS5 20-117) |
